Positions count from the first letter of the chain named.
Experiments:
ARG2 = target: T1, ARG2 (Homo sapiens, UniProt P78540); assay: T cell proliferation assay (BrdU, 72 hours) with exogenous ARG2; format: cell-based; set-up: human ARG2 (aa23-354); His10 (C); made in house; host or cells: E. coli BL21 (DE3)
T1 sequence (P78540 23-354): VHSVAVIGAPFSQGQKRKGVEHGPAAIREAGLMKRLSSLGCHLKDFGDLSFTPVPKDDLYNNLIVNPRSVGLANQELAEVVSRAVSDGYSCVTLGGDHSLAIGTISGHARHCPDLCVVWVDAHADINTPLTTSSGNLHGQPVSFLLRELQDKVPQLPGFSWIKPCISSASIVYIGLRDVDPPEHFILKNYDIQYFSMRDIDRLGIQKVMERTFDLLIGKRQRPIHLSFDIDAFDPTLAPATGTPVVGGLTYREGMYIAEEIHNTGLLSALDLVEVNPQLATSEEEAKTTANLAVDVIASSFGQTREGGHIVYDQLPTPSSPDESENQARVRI
Method: This assay served to provide in vitro evidence of functional efficacy for each antibody.
Briefly, Leukocyte cones (NHS Blood and Transplant, Watford, UK) underwent Ficoll Plaque (GE, Sweden; Cat: 17-1440-02) gradient separation, PBMC's were extracted and pan T cell population isolated by negative selection using the Human T Cell Enrichment Kit (Stemcell Technologies, France; Cat: 19051) according to the manufacturer's instructions.
40000 cells/well were seeded in complete growth media (RMPI 1640, 5% Human Serum Albumin) into a 96 well clear TC treated microplate (Greiner-Bio One, Germany; Cat: 655180). T Cells were activated by the addition of ImmunoCult CD3/CD28 (Stemcell Technologies, France; Cat: 10971) at a dilution of 1:40 directly into wells and the plate incubated 37° C., 5% CO2 for 45 minutes.
To determine EC50's of test antibodies, a dilution series was created in sterile TBS at 8× the final assay concentration was added to the assay plate containing cells. Plate was incubated for 30 minutes at 37° C., 5% CO2.
ARG2 was added to relevant wells of the plate at a final concentration of 15 μg/ml. The equivalent volume of ARG2 vehicle and test antibody vehicle was added to relevant control wells. […]
Calculated data was expressed as % of control (Equation 3) and graphical plots were constructed using a four parameter fit and EC50's determined using model 205 in XLFit (IDBS, UK). […]

monomeric ARG2 = target: T2, monomeric ARG2 (Homo sapiens, UniProt P78540, E275Q); assay: Human monomeric ARG2 enzyme inhibition assay; format: biochemical; conditions: purified recombinant human IgG1, FIG. 5
T2 construct: human ARG2 (aa23-354); His10 (C); made in house; host or cells: E. coli
T2 sequence (P78540 23-354 E275Q): T1 sequence (P78540 23-354) with E253Q
Method: ARG2 specific recombinant IgG1 were screened for their ability to inhibit enzymatic activity of monomeric ARG2. In this assay, the ability of ARG2 specific recombinant IgG1 to inhibit the enzymatic activity of monomeric ARG2 was determined by measuring the production of urea, the product of L-arginine turnover by monomeric ARG2.
IC50 values were determined by testing a dilution series of the ARG2 specific recombinant IgG1, prepared in TBS.
10 μl of ARG2 specific recombinant IgG1 (dilution series) were added to a Greiner Bio-One® 384 well assay plate (Greiner Bio-one, UK; cat: 781901). […]
Urea was detected by the simultaneous addition of equal volumes of O-Phthaldialdehyde (1.5 mM O-Phthaldialdehyde, 7% H2SO4, 0.03% Brij L23) and N-(1-Napthyl)ethylenediamine (1.66 mM N-(1-Napthyl)ethylenediamine, 81 mM Boric acid, 21% H2SO4, 0.03% Brij L23) followed by an 18 minute incubation at room temperature before the colorimetric product was quantified on the Pherastar by measuring absorbance at 505 nm.
ARG2 specific recombinant IgG1 were tested alongside N-Hydroxyl-L-Arginine (a small molecule competitive inhibitor of ARG2) as a positive control and NIP228 (irrelevant isotype control antibody) as a negative control. Data points were plotted and IC50 values determined using a four parameter fit in GraphPad Prism (FIG. 5).

EC50 (ARG2; In Presence of rhARG2): > 2 µM
Maximum % Proliferation (ARG2; In Presence of rhARG2, NHLA value at 0.444 mM): 49%
inhibition of the activity of human monomeric ARG2 (monomeric ARG2): inhibited
B1: C0020065: anti-ARG2 antibody, alternate lead isolation clone, VH SEQ ID NO: 2, VL SEQ ID NO: 7 (antibody, listed as Homo sapiens, V domains shown)
VH: GVNLRESGGGVVQPGRSLRLSCAASGFTFSSYAMHWVRQAPGKGLEWVAVISYDGSNKYYVDSVKGRFTISRDNSKNTLYLQMNSLRAEDTAVYYCARDSSQLWFDYWGRGTLVTVSS
VL: QSVVTQPPSVSGAPGQRVTISCTGSSSNIGTGYDVHWYQQLPGTAPKLLIYGNSNRPSGVPDRFSGSKSGTSASLAITGLQAEDEADYYCQSYDSSLSGSVVFGGGTQLTVL
modifications: C0020065

Reference: patent US20220403048A1, “BINDING MOLECULES TO ARGINASE II [ARG2]” (Cancer Research Technology Limited, priority 2019, published 2022)
